{
  "source": "patent US20210120790A1",
  "key": {"[1]": {"biological_target": "Endogenous mouse SIRPα of wildtype BALB/c mice (mouse (BALB/c)) (UniProt P97797)", "sequence (P97797 32-513)": "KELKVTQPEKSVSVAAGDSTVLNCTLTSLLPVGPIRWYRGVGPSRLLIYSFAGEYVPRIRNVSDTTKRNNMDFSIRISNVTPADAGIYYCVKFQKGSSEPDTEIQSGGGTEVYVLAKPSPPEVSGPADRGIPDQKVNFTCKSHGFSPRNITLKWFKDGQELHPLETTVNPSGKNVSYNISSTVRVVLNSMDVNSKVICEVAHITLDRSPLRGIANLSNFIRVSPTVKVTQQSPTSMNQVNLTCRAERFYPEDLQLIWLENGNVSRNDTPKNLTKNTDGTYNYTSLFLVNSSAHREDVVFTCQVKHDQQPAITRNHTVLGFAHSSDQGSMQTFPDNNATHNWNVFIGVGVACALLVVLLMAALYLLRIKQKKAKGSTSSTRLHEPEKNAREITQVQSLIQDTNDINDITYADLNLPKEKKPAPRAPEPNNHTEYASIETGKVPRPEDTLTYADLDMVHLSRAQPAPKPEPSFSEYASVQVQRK", "assay": "flow cytometry; CD47 protein on peritoneal cavity cells of wildtype BALB/c mice, detected with human anti-CD47 antibody and AF647 anti-hIgG"}, "[2]": {"biological_target": "Endogenous mouse SIRPα of wildtype C57BL/6 mice (mouse (C57BL/6)) (UniProt P97797)", "assay": "flow cytometry; CD47 protein on peritoneal cavity cells of wildtype C57BL/6 mice, detected with human anti-CD47 antibody and AF647 anti-hIgG"}},
  "data": [
    {"substance": "Mouse CD47 proteins (added to peritoneal cavity cells, Example 16) (ligand)", "values": [
      {"measurement": "geometric mean of flow cytometry signal", "setting": "[1]", "result": 100},
      {"measurement": "geometric mean of flow cytometry signal", "setting": "[2]", "result": 100}
    ]}
  ]
}
